Assay results reported in the supplement of paper PMC10567573.

B1: HSP90AB1 (parent)
chain: TLRQKAEADKNDKAVKDLVVLLFE
B2: BTBD1 (parent)
chain: IVGFGLYGSIHGPTDYQVNIQIIE

Variants of: B1
Test: protein stability index of a GFP-peptide fusion (GPS, HEK-293T) (PSI 1-6); higher = more stable
Settings: c terminus: a fixed tail appended
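Also: lentivirally expressed fusions sorted by FACS into six bins by GFP to DsRed ratio, PSI derived from sequencing read proportions per bin multiplied by bin number.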

| Variant | protein stability index |
| --- | --- |
| F23H | 4.5 |
| F23E | 5.22 |
| F23P | 5.02 |
| F23D | 5.38 |
| F23G | 4.87 |
| F23Y | 3.47 |
| D12W | 2.07 |
| D12R | 3.48 |
| D12Q | 2.7 |
| D12T | 2.22 |
| D12S | 3.17 |
| D12P | 2.49 |
| V15L | 2.81 |
| V15R | 2.49 |
| V15F | 2.91 |
| V15S | 3.09 |
| V15P | 2.54 |
| V15T | 3.11 |
| V15A | 3.1 |
| V15Q | 2.86 |
| V15M | 3.47 |
| V15K | 3.27 |
| V15I | 2.48 |
| V15W | 2.64 |

| Variant | protein stability index |
| --- | --- |
| V15Y | 3.43 |
| V15N | 3.12 |
| V15G | 3.48 |
| V15D | 3.2 |
| V15E | 3.37 |
| A14K | 3.1 |
| A14S | 2.26 |
| A14N | 2.56 |
| A14D | 2.58 |
| A14M | 2.73 |
| A14E | 3.64 |
| A14W | 2.68 |
| A14H | 2.79 |
| A14R | 2.62 |
| A14T | 2.57 |
| A14Q | 2.92 |
| A14V | 2.44 |
| A14F | 2.02 |
| A14G | 3.17 |
| A14C | 2.35 |
| A14I | 3 |
| A14L | 2.63 |
| A14P | 2.99 |

Variants of: B2
Test: as above
Settings: c terminus: a fixed tail appended

| Variant | protein stability index |
| --- | --- |
| G3K | 3.18 |
| G3F | 3.55 |
| G3V | 3.82 |
| G3N | 3.38 |
| G3S | 1.66 |
| S9L | 3.19 |
| S9H | 1.88 |
| S9N | 3.18 |
| E24F | 1.72 |
| E24I | 2.08 |
| E24W | 3.21 |
| E24V | 2.95 |
| E24Q | 2.62 |
| E24L | 4.16 |
| I10G | 5.97 |
| I10D | 2.74 |
| I10K | 1.76 |
| I10M | 1.95 |
| Y16K | 3.23 |
| Y16Q | 1.69 |
| Y16G | 4.04 |
| G12L | 3.53 |
| G12M | 2.27 |
| G12E | 3.19 |

| Variant | protein stability index |
| --- | --- |
| I22S | 2.09 |
| I22P | 3.17 |
| I22H | 2.4 |
| I22V | 3.25 |
| I22N | 1.24 |
| I22A | 2.07 |
| I22L | 2.65 |
| I22G | 1.91 |
| F4P | 1.87 |
| F4K | 2.39 |
| F4H | 2.54 |
| F4R | 2.25 |
| F4C | 2.29 |
| F4S | 2.07 |
| F4T | 2.1 |
| H11D | 1.97 |
| H11P | 2.57 |
| H11N | 3.26 |
| Q17D | 2.09 |
| Q17A | 3.68 |
| Q17P | 1.98 |
| Q17T | 2.53 |
| Q17Y | 2.44 |
| N19V | 4.07 |

| Variant | protein stability index |
| --- | --- |
| N19R | 2.13 |
| N19W | 1.76 |
| N19Q | 2.56 |
| Y7P | 3.54 |
| Y7C | 2.57 |
| Y7N | 2.96 |
| Y7G | 2.06 |
| V2G | 2.59 |
| V2P | 1.76 |
| V2W | 3.31 |
| V2A | 2.81 |
| I23N | 3.56 |
| I23C | 2.05 |
| I23K | 2.13 |
| I23S | 2.29 |
| D15G | 2.52 |
| D15E | 3.19 |
| D15I | 3.86 |
| D15C | 2.97 |
| D15L | 3.05 |
| Q21W | 1.5 |
| Q21C | 2.19 |
| Q21A | 3.82 |
| Q21T | 2.1 |

| Variant | protein stability index |
| --- | --- |
| Q21L | 2.66 |
| G5T | 2.89 |
| G5A | 4.32 |
| G5Q | 3.76 |
| G5C | 2.63 |
| P13F | 2.72 |
| P13Y | 2.98 |
| P13I | 4.51 |
| P13T | 2.81 |
| P13C | 2.51 |
| P13D | 1.76 |
| I1G | 3.43 |
| I1C | 2.91 |
| I1V | 3.69 |
| I1R | 1.65 |
| I1N | 2.16 |
| G8H | 2.61 |
| G8T | 2.37 |
| G8M | 2.04 |
| G8I | 2.28 |
| G8K | 2.89 |
| G8F | 2.78 |
| G8P | 4.75 |
| L6F | 4.24 |

| Variant | protein stability index |
| --- | --- |
| L6D | 2.33 |
| L6M | 1.94 |
| L6I | 2.75 |
| L6T | 2.16 |
| L6Y | 3.48 |
| T14M | 3.23 |
| T14C | 2.51 |
| T14W | 2.9 |
| T14I | 2.73 |
| T14S | 3.24 |
| T14Q | 3.12 |
| V18L | 3.15 |
| V18F | 2.14 |
| V18R | 2.39 |
| V18I | 2.72 |
| V18E | 2.36 |
| V18D | 2.32 |
| I20T | 2.13 |
| I20C | 2.49 |
| I20N | 1.24 |
| I20H | 2.21 |
| I20E | 1.46 |
| I20R | 2.12 |
| I20K | 1.16 |
